First the molecules themselves.
B1: ZMYND11 (parent)
chain: YCSIKCQQEHWHAEHKRTCRRKR
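Also: lentivirally expressed fusions sorted by FACS into six bins by GFP to DsRed ratio, PSI derived from sequencing read proportions per bin multiplied by bin number.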

The series covers variants of B1. Briefly: protein stability index of a GFP-peptide fusion (GPS, HEK-293T) (PSI 1-6); higher = more stable. The conditions noted are these: c terminus: native.
As to YCSIKCQQEHWHAEHKRTMRRKR [C19M], the protein stability index amounted to 2.41. To YCSIKCQQEHWHAEHKRTDRRKR [C19D] belongs 3.46.

In the case of YCSIKCQQEHWHAEHKRTWRRKR [C19W], the protein stability index was found to be 1.98.

For the variant YCSIKCQQEHWHAEHKRTRRRKR [C19R], the protein stability index came to 2.76. Then YCSIKCQQEHWHAEHKRTPRRKR [C19P], with 3.4. Then YCSIKCQQEHWHAEHKRTNRRKR [C19N], with 2.21; and YCSIKCQQEHWHAEHKRTHRRKR [C19H], with 2.71; and YCSIKCQQEHWHAEHKRTIRRKR [C19I], with 2.72.

Take YCSIKCQQEHWHAEHKRTFRRKR [C19F]: the protein stability index was 2.24.

Consider YCSIKCQQEHWHAEHKRTTRRKR [C19T], for which the protein stability index turned out to be 2.77. To YCSIKCQQEHWHAEHKRTQRRKR [C19Q] belongs 2.19. To YCSIKCQQEHWHAEHKRTKRRKR [C19K] belongs 2.3; to YCSIKCQQEHWHAEHKRTLRRKR [C19L], 2.83.

Turning to YCSIKCQQEHWHAEHKRTVRRKR [C19V], the protein stability index was determined as 2.48. To YCSIKCQQEHWHAEHKRTERRKR [C19E] belongs 2.75; to YCSIKCQQEHWHAEHKRTSRRKR [C19S], 2.82; to YCSIKCQQEHWHAEHKRTYRRKR [C19Y], 3.63.

As for YCSIKCQQEHWHAEHKRTGRRKR [C19G], the protein stability index was found to be 2.71. Regarding YCSIKCQQEHWHAEHKRTARRKR [C19A], the protein stability index came out at 2.84. Then YCSIKCQQEHWHAEHKRTCRRKT [R23T], with 2.26. Then YCSIKCQQEHWHAEHKRTCRRKA [R23A], with 2.28; and YCSIKCQQEHWHAEHKRTCRRKS [R23S], with 2.64; and YCSIKCQQEHWHAEHKRTCRRKC [R23C], with 2.04. Then YCSIKCQQEHWHAEHKRTCRRKH [R23H], with 2.26.

As to YCSIKCQQEHWHAEHKRTCRRKL [R23L], the protein stability index is 2.2. For YCSIKCQQEHWHAEHKRTCRRKN [R23N], the protein stability index was 2.09. Take YCSIKCQQEHWHAEHKRTCRRKW [R23W]: the protein stability index was 4.23. Then YCSIKCQQEHWHAEHKRTCRRKM [R23M], with 2.15; and YCSIKCQQEHWHAEHKRTCRRKF [R23F], with 1.58; and YCSIKCQQEHWHAEHKRTCRRKE [R23E], with 2.77. Then YCSIKCQQEHWHAEHKRTCRRKV [R23V], with 1.26. In the case of YCSIKCQQEHWHAEHKRTCRRKQ [R23Q], the protein stability index came to 3.2. To YCSIKCQQEHWHAEHKRTCRRKY [R23Y] belongs 1.41. To YCSIKCQQEHWHAEHKRTCRRKD [R23D] belongs 1.86; to YCSIKCQQEHWHAEHKRTCRRKP [R23P], 3.21. To YCSIKCQQEHWHAEHKRTCRRKG [R23G] belongs 5.07; to YCSIKCQQEHWHAEHKRTCRRKK [R23K], 2.11.

As to YCSIKCQQEHWHAEHKRPCRRKR [T18P], the protein stability index is 2.08.

On to YCSIKCQQEHWHAEHKRICRRKR [T18I], for which the protein stability index is 2.76.

As for YCSIKCQQEHWHAEHKRACRRKR [T18A], the protein stability index was 2.36.

Regarding YCSIKCQQEHWHAEHKRMCRRKR [T18M], the protein stability index amounted to 1.91. Then YCSIKCQQEHWHAEHKRFCRRKR [T18F], with 2.47; and YCSIKCQQEHWHAEHKRECRRKR [T18E], with 2.56; and YCSIKCQQEHWHAEHKRDCRRKR [T18D], with 2.95. Then YCSIKCQQEHWHAEHKRGCRRKR [T18G], with 2.39; and YCSIKCQQEHWHAEHKRYCRRKR [T18Y], with 2.45; and YCSIKCQQEHWHAEHKRWCRRKR [T18W], with 2.16. To YCSIKCQQEHWHAEHKRRCRRKR [T18R] belongs 2.29; to YCSIKCQQEHWHAEHKRVCRRKR [T18V], 1.61. On to YCSIKCQQEHWHAEHKRKCRRKR [T18K], for which the protein stability index stood at 2.84.

Regarding YCSIKCQQEHWHAEHKRLCRRKR [T18L], the protein stability index turned out to be 1.27. Then YCSIKCQQEHWHAEHKRNCRRKR [T18N], with 3.18.

As to YCSIKCQQEHWHAEHKRSCRRKR [T18S], the protein stability index turned out to be 2.56. To YCSIKCQQEHWHAEHKRQCRRKR [T18Q] belongs 3.08; to YCSIKCQQEHWHAEHKRCCRRKR [T18C], 2.85; to YCSIKCQQEHWHAEHKRHCRRKR [T18H], 2.5. To YCSIKCQQEHWHAEHKWTCRRKR [R17W] belongs 1.56; to YCSIKCQQEHWHAEHKYTCRRKR [R17Y], 1.82. Then YCSIKCQQEHWHAEHKRTCLRKR [R20L], with 2.17; and YCSIKCQQEHWHAEHKRTCYRKR [R20Y], with 2.28; and YCSIKCQQEHWHAEHKRTCGRKR [R20G], with 2.65. With YCSIKCQQEHWHAEHKRTCQRKR [R20Q], the protein stability index came to 1.51. To YCSIKCQQEHWHAEHKRTCCRKR [R20C] belongs 2; to YCSIKCQQEHWHAEHKRTCFRKR [R20F], 3.4; to YCSIKCQQEHWHAEHKRTCIRKR [R20I], 1.35.

Consider YCSIKCQQEHWHAEHKRTCDRKR [R20D], for which the protein stability index amounted to 1.76. Then YCSIKCQQEHWHAEHKRTCHRKR [R20H], with 2.2; and YCSIKCQQEHWHAEHKRTCWRKR [R20W], with 1.98; and YCSIKCQQEHWHAEHKRTCTRKR [R20T], with 3.02. As to YCSIKCQQEHWHAEHKRTCPRKR [R20P], the protein stability index came to 1.89. Then YCSIKCQQEHWHAEHKRTCVRKR [R20V], with 2.8.

With YCSIKCQQEHWHAEHKRTCSRKR [R20S], the protein stability index stood at 1.99. As to YCSIKCQQEHWHAEHKRTCKRKR [R20K], the protein stability index was 1.72.

Regarding YCSIKCQQEHWHAEHKRTCARKR [R20A], the protein stability index was determined as 2.33. Then YCSIKCQQEHWHAEHKRTCNRKR [R20N], with 2.02; and YCSIKCQQEHWHAEHKRTCRRLR [K22L], with 2.02; and YCSIKCQQEHWHAEHKRTCRRSR [K22S], with 3.04. YCSIKCQQEHWHAEHKRTCRRHR [K22H]: the protein stability index was 1.74. Then YCSIKCQQEHWHAEHKRTCRRFR [K22F], with 2.13; and YCSIKCQQEHWHAEHKRTCRRIR [K22I], with 2.37; and YCSIKCQQEHWHAEHKRTCRRWR [K22W], with 2.97. Then YCSIKCQQEHWHAEHKRTCRRGR [K22G], with 2.33; and YCSIKCQQEHWHAEHKRTCRRMR [K22M], with 1.55. Regarding YCSIKCQQEHWHAEHKRTCRRAR [K22A], the protein stability index came out at 1.83.

Turning to YCSIKCQQEHWHAEHKRTCRRCR [K22C], the protein stability index was 2.6. Then YCSIKCQQEHWHAEHKRTCRRTR [K22T], with 1.91. Then YCSIKCQQEHWHAEHKRTCRRQR [K22Q], with 2.64; and YCSIKCQQEHWHAEHKRTCRRVR [K22V], with 2.15; and YCSIKCQQEHWHAEHKRTCRRDR [K22D], with 1.85.

In the case of YCSIKCQQEHWHAEHKRTCRRRR [K22R], the protein stability index worked out at 1.79. Then YCSIKCQQEHWHAEHKRTCRRPR [K22P], with 1.94; and YCSIKCQQEHWHAEHKRTCRRER [K22E], with 2.41.

In the case of YCSIKCQQEHWHAEHKRTCRRNR [K22N], the protein stability index stood at 1.37. With YCSIKCQQEHWHAEHKRTCRRYR [K22Y], the protein stability index turned out to be 1.53.

With YCSIKCQQEHWHAEHKRTCRDKR [R21D], the protein stability index was 1.96.

For the variant YCSIKCQQEHWHAEHKRTCRWKR [R21W], the protein stability index is 1.94. To YCSIKCQQEHWHAEHKRTCRAKR [R21A] belongs 2.2. Then YCSIKCQQEHWHAEHKRTCRCKR [R21C], with 2.15.

Turning to YCSIKCQQEHWHAEHKRTCRKKR [R21K], the protein stability index was found to be 2.92. To YCSIKCQQEHWHAEHKRTCRNKR [R21N] belongs 1.98. On to YCSIKCQQEHWHAEHKRTCRIKR [R21I], for which the protein stability index came out at 2.99. To YCSIKCQQEHWHAEHKRTCRFKR [R21F] belongs 2.45. Then YCSIKCQQEHWHAEHKRTCRYKR [R21Y], with 2.2; and YCSIKCQQEHWHAEHKRTCREKR [R21E], with 2.43. Then YCSIKCQQEHWHAEHKRTCRVKR [R21V], with 2.61; and YCSIKCQQEHWHAEHKRTCRPKR [R21P], with 1.52; and YCSIKCQQEHWHAEHKRTCRLKR [R21L], with 2.2. For YCSIKCQQEHWHAEHKRTCRTKR [R21T], the protein stability index stood at 2.41.

On to YCSIKCQQEHWHAEHKRTCRQKR [R21Q], for which the protein stability index amounted to 2.04. Take YCSIKCQQEHWHAEHKRTCRSKR [R21S]: the protein stability index worked out at 3.06. YCSIKCQQEHWHAEHKRTCRHKR [R21H]: the protein stability index worked out at 1.97.

Turning to YCSIKCQQEHWHAEHKRTCRGKR [R21G], the protein stability index was 2.84. To YCSIKCQQEHWHAEHKRTCRMKR [R21M] belongs 2.4.

(Values after the supplement of paper PMC10567573.)
